Experiment [1] concerns the target FVIII free human von Willebrand factor (VWF) (human, UniProt P04275 764-2813).
Experiment [2] deals with physiologic human von Willebrand factor (VWF) (human, UniProt P04275 764-2813).

Where no end group is shown, it is not given here.

From article PMC4300948 (Nanoscale, 2014) come the findings set out here.

Turning to TRYLRIHPQSWVHQI (also: lipid-peptide bioconjugate, displayed on liposome surface) [VWF-binding peptide (VBP), FVIII-derived, decorated on liposomal nanoconstructs], the binding result in experiment [1] and in experiment [2] was “binds” throughout.
